From PMC9482650, “Quantitative fragmentomics allow affinity mapping of interactomes” (Nature Communications, 2022)

T1: LNX2_2, Q8N448
T1 sequence (Q8N448 334-432, limits assumed, looked up): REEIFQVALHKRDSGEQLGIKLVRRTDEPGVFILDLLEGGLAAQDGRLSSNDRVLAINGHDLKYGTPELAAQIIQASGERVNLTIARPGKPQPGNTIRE

T2: MPDZ_12, O75970
T2 sequence (O75970 1857-1958, limits assumed, looked up): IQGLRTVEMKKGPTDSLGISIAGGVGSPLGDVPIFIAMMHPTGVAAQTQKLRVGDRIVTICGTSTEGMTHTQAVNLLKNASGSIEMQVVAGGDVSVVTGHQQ

T3: DLG3_1, Q92796
T3 sequence (Q92796 125-227, limits assumed, looked up): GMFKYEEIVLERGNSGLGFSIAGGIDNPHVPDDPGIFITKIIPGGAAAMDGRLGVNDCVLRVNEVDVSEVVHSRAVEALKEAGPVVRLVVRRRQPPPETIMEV

T4: RAPGEF6, Q8TEU7
T4 sequence (Q8TEU7 525-625, limits assumed, looked up): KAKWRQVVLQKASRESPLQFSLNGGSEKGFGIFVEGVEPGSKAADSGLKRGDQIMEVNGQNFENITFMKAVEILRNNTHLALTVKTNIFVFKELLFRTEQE

T5: FRMPD1, Q5SYB0
T5 sequence (Q5SYB0 52-145, limits assumed, looked up): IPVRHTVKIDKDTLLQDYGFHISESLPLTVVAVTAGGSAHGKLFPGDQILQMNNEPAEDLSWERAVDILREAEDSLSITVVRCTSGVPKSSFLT

T6: SNTB1, Q13884
T6 sequence (Q13884 107-205, limits assumed, looked up): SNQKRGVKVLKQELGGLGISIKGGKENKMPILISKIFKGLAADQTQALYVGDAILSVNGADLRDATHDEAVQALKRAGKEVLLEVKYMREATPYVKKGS

T7: GRIP1_5, Q9Y3R0
T7 sequence (Q9Y3R0 568-668, limits assumed, looked up): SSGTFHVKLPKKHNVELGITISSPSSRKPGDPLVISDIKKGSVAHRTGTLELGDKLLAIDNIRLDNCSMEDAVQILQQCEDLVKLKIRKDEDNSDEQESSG

T8: DLG3_2, Q92796
T8 sequence (Q92796 221-321, limits assumed, looked up): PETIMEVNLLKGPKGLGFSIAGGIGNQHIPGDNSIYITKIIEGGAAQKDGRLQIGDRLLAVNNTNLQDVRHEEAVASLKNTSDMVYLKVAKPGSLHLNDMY

T9: PARD3B_1, Q8TEW8
T9 sequence (Q8TEW8 196-299, limits assumed, looked up): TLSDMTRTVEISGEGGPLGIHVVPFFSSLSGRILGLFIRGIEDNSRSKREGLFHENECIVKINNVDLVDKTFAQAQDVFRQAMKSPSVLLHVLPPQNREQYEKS

T10: TX1BP3, O14907
T10 sequence (O14907 10-122, limits assumed, looked up): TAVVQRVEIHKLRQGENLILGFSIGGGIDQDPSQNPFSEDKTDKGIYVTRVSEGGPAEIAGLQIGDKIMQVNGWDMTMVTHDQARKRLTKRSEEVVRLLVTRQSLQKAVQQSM


Experiments:
Assay in all cases: holdup assay
Design in all cases: key: below the threshold = too weak to quantify, mostly under pKd 3.1 to 4
Conditions in all cases: plain residues with an end cap or a label only (N-terminal biotin on a linker: ado-ado)
[1] = target: MAST2, Q6P0Q8
[2] = target: T1, LNX2_2, Q8N448
[3] = target: T2, MPDZ_12, O75970
[4] = target: Inadl_6, Q8NI35
[5] = target: T3, DLG3_1, Q92796
[6] = target: GORASP2, Q9H8Y8
[7] = target: T4, RAPGEF6, Q8TEU7
[8] = target: Inadl_3, Q8NI35
[9] = target: T5, FRMPD1, Q5SYB0
[10] = target: HTRA2, O43464
[11] = target: DLG4_1, P78352
[12] = target: Inadl_8, Q8NI35
[13] = target: MAGI2_4, Q86UL8
[14] = target: PICK1, Q9NRD5
[15] = target: MAST1, Q9Y2H9
[16] = target: TJP2_1, Q9UDY2
[17] = target: T6, SNTB1, Q13884
[18] = target: FRMPD2_1, Q68DX3
[19] = target: T7, GRIP1_5, Q9Y3R0
[20] = target: MAGI2_5, Q86UL8
[21] = target: T8, DLG3_2, Q92796
[22] = target: FRMPD2_2, Q68DX3
[23] = target: T9, PARD3B_1, Q8TEW8
[24] = target: PTPN3, P26045
[25] = target: T10, TX1BP3, O14907
[26] = target: SCRIB_3, Q14160
[27] = target: GOPC, Q9HD26

Sequence of MAST1, Q9Y2H9 (Q9Y2H9 962-1065): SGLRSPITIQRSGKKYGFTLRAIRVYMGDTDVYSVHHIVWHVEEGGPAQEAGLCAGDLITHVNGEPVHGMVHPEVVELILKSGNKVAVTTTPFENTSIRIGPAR
Sequence of MAST2, Q6P0Q8 (Q6P0Q8 1099-1202): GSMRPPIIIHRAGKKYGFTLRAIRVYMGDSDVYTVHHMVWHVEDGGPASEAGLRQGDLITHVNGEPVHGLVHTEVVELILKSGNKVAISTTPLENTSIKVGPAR
Sequence of PICK1, Q9NRD5 (Q9NRD5 17-115): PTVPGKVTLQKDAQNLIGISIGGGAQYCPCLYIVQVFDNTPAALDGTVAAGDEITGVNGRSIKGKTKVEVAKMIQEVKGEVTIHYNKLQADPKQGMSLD
Sequence of MAGI2_5, Q86UL8 (Q86UL8 915-1017): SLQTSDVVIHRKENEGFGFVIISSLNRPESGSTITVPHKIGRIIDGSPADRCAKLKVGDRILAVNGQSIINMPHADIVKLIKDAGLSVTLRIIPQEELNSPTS
Sequence of SCRIB_3, Q14160 (Q14160 999-1103): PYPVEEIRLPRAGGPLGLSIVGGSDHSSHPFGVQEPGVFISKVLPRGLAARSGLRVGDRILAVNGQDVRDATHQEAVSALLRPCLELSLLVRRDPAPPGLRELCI
Sequence of FRMPD2_2, Q68DX3 (Q68DX3 944-1038): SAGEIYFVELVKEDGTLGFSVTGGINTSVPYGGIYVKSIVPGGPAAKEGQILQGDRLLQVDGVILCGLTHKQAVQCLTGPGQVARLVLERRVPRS
Sequence of Inadl_3, Q8NI35 (Q8NI35 359-469): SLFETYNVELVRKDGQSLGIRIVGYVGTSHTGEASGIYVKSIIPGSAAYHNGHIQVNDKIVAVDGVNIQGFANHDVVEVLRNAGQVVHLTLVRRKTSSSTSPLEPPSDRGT
Sequence of Inadl_6, Q8NI35 (Q8NI35 1058-1167): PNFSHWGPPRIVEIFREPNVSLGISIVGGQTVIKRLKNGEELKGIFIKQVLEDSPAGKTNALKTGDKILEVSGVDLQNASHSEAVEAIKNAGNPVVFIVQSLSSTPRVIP
Sequence of MAGI2_4, Q86UL8 (Q86UL8 772-865): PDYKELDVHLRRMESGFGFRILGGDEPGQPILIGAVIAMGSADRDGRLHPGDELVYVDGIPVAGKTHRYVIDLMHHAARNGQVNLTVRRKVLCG
Sequence of FRMPD2_1, Q68DX3 (Q68DX3 770-861): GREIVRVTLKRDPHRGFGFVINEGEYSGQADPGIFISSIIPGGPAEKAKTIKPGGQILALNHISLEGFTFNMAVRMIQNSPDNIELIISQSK
Sequence of TJP2_1, Q9UDY2 (Q9UDY2 24-128): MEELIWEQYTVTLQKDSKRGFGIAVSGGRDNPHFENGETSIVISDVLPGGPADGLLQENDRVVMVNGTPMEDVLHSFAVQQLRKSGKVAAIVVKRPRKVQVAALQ
Sequence of HTRA2, O43464 (O43464 355-458): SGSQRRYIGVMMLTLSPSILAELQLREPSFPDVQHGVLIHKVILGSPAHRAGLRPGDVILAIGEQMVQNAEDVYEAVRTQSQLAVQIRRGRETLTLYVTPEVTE
Sequence of PTPN3, P26045 (P26045 505-587): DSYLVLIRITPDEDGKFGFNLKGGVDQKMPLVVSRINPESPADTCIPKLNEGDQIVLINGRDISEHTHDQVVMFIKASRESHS
Sequence of Inadl_8, Q8NI35 (Q8NI35 1425-1530): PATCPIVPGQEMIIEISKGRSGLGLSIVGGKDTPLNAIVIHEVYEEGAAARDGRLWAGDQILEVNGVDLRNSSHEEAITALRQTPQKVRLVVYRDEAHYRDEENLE
Sequence of DLG4_1, P78352 (P78352 62-152): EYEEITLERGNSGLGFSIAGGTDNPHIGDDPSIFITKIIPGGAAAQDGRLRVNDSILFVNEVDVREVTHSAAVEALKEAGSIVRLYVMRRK

Binder | pKd [1] | pKd [2] | pKd [3] | pKd [4] | pKd [5] | pKd [6] | pKd [7] | pKd [8] | pKd [9] | pKd [10] | pKd [11] | pKd [12] | pKd [13] | pKd [14] | pKd [15] | pKd [16] | pKd [17] | pKd [18] | pKd [19] | pKd [20] | also measured
RDFDYIADWC [PKN2, Q16513] | 3.64 | 4.59 | 4.2 | 3.56 | below the threshold | 3.87 | below the threshold | 3.6 | below the threshold | 5.11 | below the threshold | 4.55 | 3.53 | 4.06 | 3.8 | 4.48 | below the threshold | below the threshold | below the threshold | 3.95 | pKd [21]: 4.16; pKd [22]: below the threshold; pKd [23]: 3.54; pKd [24]: 3.85; pKd [25]: below the threshold; pKd [26]: 3.49; pKd [27]: below the threshold
TGPWKNETTV [ADGRA1, Q86SQ6] | 5.31 | 4.93 | below the threshold | below the threshold | 4.47 | 3.57 | below the threshold | below the threshold | below the threshold | below the threshold | 4.99 | below the threshold | 4.74 | below the threshold | 4.71 | below the threshold | 4.67 | below the threshold | below the threshold | 4.02 | pKd [21]: 5.01; pKd [22]: 3.57; pKd [23]: below the threshold; pKd [24]: 4.76; pKd [25]: 4.47; pKd [26]: 4.69; pKd [27]: 3.69
VRPGVKESLV [SCN4A, P35499] | 4.87 | 3.91 | below the threshold | 3.54 | 4.5 | below the threshold | below the threshold | below the threshold | below the threshold | below the threshold | 4.98 | 4.15 | 4.37 | below the threshold | 4.19 | below the threshold | 5.05 | below the threshold | below the threshold | 5.03 | pKd [21]: 5; pKd [22]: 3.91; pKd [23]: below the threshold; pKd [24]: 4.78; pKd [25]: 4.73; pKd [26]: 4.34; pKd [27]: below the threshold
RRLQGTSSMV [GOLT1A, Q6ZVE7] | 4.72 | 3.78 | below the threshold | below the threshold | 3.81 | 4.17 | below the threshold | below the threshold | below the threshold | below the threshold | 4.04 | 4.08 | below the threshold | 4.03 | 4.35 | 3.59 | below the threshold | below the threshold | below the threshold | 4 | pKd [21]: 4.67; pKd [22]: below the threshold; pKd [23]: below the threshold; pKd [24]: 3.99; pKd [25]: 3.9; pKd [26]: below the threshold; pKd [27]: below the threshold
